Data from the nanobody polyreactivity screen of Harvey et al. (2022).

Assay: yeast display, Sf9 membrane polyspecificity reagent, FACS + sequencing; frameworks hold sequencing errors
How it was run: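 A synthetic nanobody library was expressed on Saccharomyces cerevisiae BJ5465 by galactose induction for 36–48 hours. The library was stained for 1 hour at 4 °C with 10% biotinylated, detergent-solubilized Sf9 membrane reagent and enriched with streptavidin microbeads before FACS. Low and high (top ~1%) gates were set on anti-HA fluorescence for expression and streptavidin fluorescence for reagent binding, and each polyreactivity label reflects the gate of origin.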

Row | Sequence | polyreactivity (PSR sort gate)
1 | QVQLVESGGGLVQAGGSLRLSCAASGSIVSYYAMGWYRQAPGIERELVAAITTRGGRSYYADSVMGRFTISRDYAKNTVYLPMNSLKPEDTAVYYFNRYPGYIQGDYDYWGQGTQVTVSS | high polyreactivity
2 | QVQLVESGGGLVQAGGSLRLSCAASGSIVVHNAMGWYRQAPGKERELVAAITWSGGSTYYADSVKGRFTISRDNAKNTVYLQMNSLKPVDTAVYYCAAEDVAAQWAYESPTSYWYYYWGQGTQVTVSS | low polyreactivity
3 | QVQLVESGGGLVQAGGSLRLSCAASGSIVVVYDKGWYRQAPGKERELVAAISRRGGNTYYADSVKGRFTISRDNAKNTVYLQMNSLKPEDTAVYYCNAVRTRKAFDYWGQGTQVTVSS | low polyreactivity
4 | QVQLVESGGGLVQAGGSLRLSCAASGSIVYRYSMGWYRQAPGKERELVAGITFGAGTYYADSVKGRFTISRDNAKNTVYLQMNSLKPEDTAVYYCNAIHLPRHRDYWGQGTQVTVSS | low polyreactivity
5 | QVQLVESGGGLVQAGGSLRLSCAASGSIWHKAMGWYRQAPGKERELVASSTNYADSVKGRITISRDNAKNTVYLQMNSLKPEDTAVYYCALEQGVNRNHDYWGQGTQVTVSS | low polyreactivity
6 | QVQLVESGGGLVQAGGSLRLSCAASGSIWYYAMGWYRQAPWTERELVAAIRRGGSTYYADYVKGRFTISRDNAKNTVYVQMNSMKPEDTAVYYCAASWNYYKLDYWGQGTQVTVSS | high polyreactivity
7 | QVQLVESGGGLVQAGGSLRLSCAASGSIYDIYAMGWYGQAPGKERELVAAIRSGDRTHYADSVKGRFTISRDNAKNTVYLQMNSLKPEDTAVYYCAADRYIYLNREHDYWGQGTQVTVSS | low polyreactivity
8 | QVQLVESGGGLVQAGGSLRLSCAASGSIYDWYSMGWNIQAPGKERELVAAISSGDSTYYADSVKGRFTISRDNAKNTVYLQMNSLKPEDTAVYYCAAVTKLSGIRYNYWGQGTQVTVSS | low polyreactivity
9 | QVQLVESGGGLVQAGGSLRLSCAASGSIYESYAMGWYRQAPGKERELVADITYDGGITYYADSVKGRFTISRDNAKNTVYLQMNSLKPEDTAVYYCATEYRYWLSDYSTYFPYDYWGQGSQVTVSS | low polyreactivity
10 | QVQLVESGGGLVQAGGSLRLSCAASGSIYPGNAMGWYRQAPGKERELVAVIDFSGASTYYADSVKGRFTISRDNAKNTVYLQMNSLKPEDTADYWGQGTQVTVSS | low polyreactivity
11 | QVQLVESGGGLVQAGGSLRLSCAASGSIYVPNDMGWYRQAPGKEREFVAAITESDGSTYYADSVKGRFTISRDNAKNTVYLQMNSLKPEDTAVYYCATDSTGVTIVHFDYWGQGTQVTVSS | low polyreactivity
12 | QVQLVESGGGLVQAGGSLRLSCAASGSIYVSYAMGWYRQAPGKERELVATITTSTGSTYADSVKGRFTISRDNAKNTVYLQMNSLKPEDTAVYYCAARYQPWLNDDFDSWGQGTQVTVSS | low polyreactivity
13 | QVQLVESGGGLVQAGGSLRLSCAASGSIYVYYAKGWYRQAPGKERYLVAAINTSGGSTYYADSVKGRFTISRDNAKNTVYLQMNSLKPEDTAVYYCAATPFASPRLHSFVVSYRYYYWGQGTQVTVSS | low polyreactivity
14 | QVQLVESGGGLVQAGGSLRLSCAASGSIYYNAMGWYRQAPGKERELVAAISTSGGTTYYADSVKGRFTISRDNAKNTVYLQMNSLKPEDTAVYYCNARPSRRGAFDYWGQGTQVTVSS | high polyreactivity
15 | QVQLVESGGGLVQAGGSLRLSCAASGSLFGANAMGWYRQAPGKERELVAAISSNGDDTYADSVKGRFTISRDNAKNTVYLQMNSLKPEDTAVYYCNKRPWWWGGDDYWGQGTQVTVSS | low polyreactivity
16 | QVQLVESGGGLVQAGGSLRLSCAASGSLFPHYAMGWNRQAPGKEREFVATISGSTGRTYYADSVKGRFTISRDNAKNTVYLQMNSLKPEDTAVYYCATSVGYYLPPIKYDYWGQGTQVTVSS | low polyreactivity

Row | Sequence | polyreactivity (PSR sort gate)
17 | QVQLVESGGGLVQAGGSLRLSCAASGSLFRSYAMGWYRQAPGKERELVAAISTRVVNTYYADSVKGRFTISRDNAKNTVYLQMNSLKPEDTAVYYCAALRYRITNVYYWGQGTQVTVSS | high polyreactivity
18 | QVQLVESGGGLVQAGGSLRLSCAASGSLFYNNAKGWYRQAPGKERELVAAIRSTGTRTYYADSVKGRFTISRDTAKNTVYLQMNSLKPEDTAVYYCAVGDYGLWSYDYWGQGSQVTVSS | low polyreactivity
19 | QVQLVESGGGLVQAGGSLRLSCAASGSMFITYTMGWYRQAPGKERELVAAITWDGGSTYYADSVKGRFTISRDNAKNTVYLQMNSLKPEDTAVYYCAKDVILVWPYATGRDYWGQGTQVTVSS | low polyreactivity
20 | QVQLVESGGGLVQAGGSLRLSCAASGSNFAGYAMGWYRPAPGKERALGAAISWSGGSTYYADSVKGRFTISRDNAKNTVYLQINSLKPEDTAVYYCNALRYGWKYNYWGQGTQVTVSS | high polyreactivity
21 | QVQLVESGGGLVQAGGSLRLSCAASGSNFDAYAIGWYRQAPGKERELVASISIGGSTNYADSVKGRFTISRDNAKNTVYLQMNSLKPEDSAVYYCAAYVYYTYPSGTVYSVSYIYDYWGQGTQVTVSS | low polyreactivity
22 | QVQLVESGGGLVQAGGSLRLSCAASGSNFFSNAMGWYRQAPGKERELVAAITSTGGSTYYADSVKGRFTISRDNAKNTVYLQMNSLKPEVTAVYYCAAASRRGYYYWGQGTQVTVSS | high polyreactivity
23 | QVQLVESGGGLVQAGGSLRLSCAASGSNFFVYAMGWYRQAPGKERELVASIRWRGSSTYYADSVKGRFTISRDNAKNPVYLQMNSLKPEDTAVYDCAATSYNGYGYWGQGTQVTVSS | high polyreactivity
24 | QVQLVESGGGLVQAGGSLRLSCAASGSNFGYNAIGWYRKAPGKEREFVAGISWSGGRTYYADSEKGRFTISRDNAKNTVYLQMNSLKPEDTAVYYCAAPSRPAPRFDYWGQGTQVTVSS | low polyreactivity
25 | QVQLVESGGGLVQAGGSLRLSCAASGSNFHYNAMGWYRQAPGKERELVAAIRWGGGSTFYADSVKGRFTISRDNAKNTVYLQMNSLKPEDTAVYYCAADYWYETRDFTFFDLYVSYEYWGQGTQVTVSS | low polyreactivity
26 | QVQLVESGGGLVQAGGSLRLSCAASGSNFIWYVMGWYRQAPGKEREFVAAINWRGTSTYYADSVKGRFTISRDNAKNTVYLQMNSLKPEDTAVYYCAARVTYRGRAYDYWGQGTQVTVSS | high polyreactivity
27 | QVQLVESGGGLVQAGGSLRLSCAASGSNFKSYAKGWYRQAPGKERELVAAITYRGGSTYYADSVKGRFTISRDNAKNTVSLQMNSLKPEDTAVYYCAADYQSVGGAEYDYWGQGTQVTVSS | high polyreactivity
28 | QVQLVESGGGLVQAGGSLRLSCAASGSNFLFNAMGWYRQAPGKERELVAAINRDDSTYYADSVKGRFTISRDNAKNTVYLQMNSLKPEDTAVYYCARDYRYTIPYDYWGQGTQVNVSS | low polyreactivity
29 | QVQLVESGGGLVQAGGSLRLSCAASGSNFLSYAMGWYRQAPGKERELVAAITGSGGNTYYADSVKGRFTISRDNAKHTVYLQMKSLKPEDTAVYYCSAVATRSNYWRGFYYWGQGTKVTVSS | high polyreactivity
30 | QVQLVESGGGLVQAGGSLRLSCAASGSNFPINAMGWYRQAPGKERELVAAISWRTGSTNYADSVKGRFTISRDNAMNTVYVQMNSLKPEDTAVFYCAASYATTRQRWLDYWGQGTQVTVSS | high polyreactivity
31 | QVQLVESGGGLVQAGGSLRLSCAASGSNFQVNAMGWYRQAPGKERELVASIDSSGGSTYYADSVKGRFTISRDNAKNTVYLQMNSLKPEDTAVFYCAAEYHHYYYYWGEYWGQGTQVTVSS | low polyreactivity
32 | QVQLVESGGGLVQAGGSLRLSCAASGSNFRANAMGWYRQATGKERELVAAISKSGGSTYYADSVKGRFRISRDNAKNTVYLQMNSLKPEDTGVYYCAARTTYLYGMYYWGQGTQVTVSS | low polyreactivity
